Experimental data: article PMC3889140 (Bioorganic & medicinal chemistry letters, 2013)
“Also recorded” adds a separate entry of the source. Positions of bridges follow the written chain, without caps; N, C: chain ends. Non-standard residues stand in square brackets, D forms with d. Residues, ends and D or L forms follow the SMILES beside them.

Experiments:
B16/F1 melanoma cells = assay: Cellular internalization in B16/F1 melanoma cells; assay type: cell-based, murine
in vivo = assay: in vivo; set-up: species or system C57 mice; conditions: C57, mouse, iv, total radioactivity; for tissue uptake dose at 2 h: percent injected dose
[1] = test system: B16/F1 melanoma-bearing C57 mouse; assay: SPECT/CT melanoma imaging; assay type: in vivo; conditions: flank B16/F1 melanoma, 2 h post-injection, about 7.4 MBq, one mouse
[2] = 0.037 MBq, Kidneys (renal) uptake
[3] = 0.037 MBq, Uptake ratio Tumor/Lung

CC(C)[C@H](NC(=O)[C@@H]1CCCN1C(=O)[C@H](CCCNC(=N)N)NC(=O)[C@H](CS)NC(=O)[C@H](Cc1c[nH]c2ccccc12)NC(=O)[C@H](CCCNC(=N)N)NC(=O)[C@@H](Cc1ccccc1)NC(=O)[C@H](Cc1c[nH]cn1)NC(=O)[C@H](CCC(=O)O)NC(=O)[C@H](CS)NC(=O)[C@H](CS)NC(=O)[C@H](CCCNC(=N)N)NC(=O)[C@@H]1CC(=O)N[C@@H](CCCNC(=N)N)C(=O)N[C@@H](C)C(=O)N[C@@H](CC(=O)O)C(=O)N[C@H](Cc2ccc(O)cc2)C(=O)N1)C(N)=O [^99mTc-RAD-Arg-(Arg^11)CCMSH, metal not drawn] (RAD[dY]DRCCEH[dF]RWCRPV-NH2; lactam N-5; C-terminus assumed)
activity internalized (B16/F1 melanoma cells; 20 min post incubation): Approximately 77.81 ± 4.46%
activity internalized (B16/F1 melanoma cells; after 2 h incubation): 81.26 ± 4.81%
tissue uptake at 0.5 h (in vivo; 0.037 MBq, Blood uptake): 3.43 ± 0.37 %ID/g
tissue uptake at 2 h (in vivo; 0.037 MBq, Blood uptake): 0.59 ± 0.17 %ID/g
tissue uptake at 4 h (in vivo; 0.037 MBq, Blood uptake): 0.1 ± 0.06 %ID/g
tissue uptake at 24 h (in vivo; 0.037 MBq, Blood uptake): 0.04 ± 0.01 %ID/g
tissue uptake at 0.5 h (in vivo; 0.037 MBq, Bone uptake): 1.97 ± 0.22 %ID/g
tissue uptake at 2 h (in vivo; 0.037 MBq, Bone uptake): 0.64 ± 0.25 %ID/g
tissue uptake at 4 h (in vivo; 0.037 MBq, Bone uptake): 0.34 ± 0.13 %ID/g
tissue uptake at 24 h (in vivo; 0.037 MBq, Bone uptake): 0.14 ± 0.04 %ID/g
tissue uptake at 0.5 h (in vivo; 0.037 MBq, Brain uptake): 0.16 ± 0.04 %ID/g
tissue uptake at 2 h (in vivo; 0.037 MBq, Brain uptake): 0.04 ± 0.02 %ID/g
tissue uptake at 4 h (in vivo; 0.037 MBq, Brain uptake): 0.02 ± 0.02 %ID/g
tissue uptake at 24 h (in vivo; 0.037 MBq, Brain uptake): 0.02 %ID/g
tissue uptake at 0.5 h (in vivo; 0.037 MBq, Heart uptake): 1.71 ± 0.58 %ID/g
tissue uptake at 2 h (in vivo; 0.037 MBq, Heart uptake): 0.5 ± 0.14 %ID/g
tissue uptake at 4 h (in vivo; 0.037 MBq, Heart uptake): 0.21 ± 0.03 %ID/g
tissue uptake at 24 h (in vivo; 0.037 MBq, Heart uptake): 0.1 ± 0.02 %ID/g
tissue uptake at 0.5 h (in vivo; [2]): 41.2 ± 4.48 %ID/g
tissue uptake at 2 h (in vivo; [2]): 35.6 ± 9.61 %ID/g
tissue uptake at 4 h (in vivo; [2]): 26.5 ± 0.62 %ID/g
tissue uptake at 24 h (in vivo; [2]): 12 ± 2.29 %ID/g
tissue uptake at 0.5 h (in vivo; 0.037 MBq, Liver uptake): 3.07 ± 0.08 %ID/g
tissue uptake at 2 h (in vivo; 0.037 MBq, Liver uptake): 1.88 ± 0.35 %ID/g
tissue uptake at 4 h (in vivo; 0.037 MBq, Liver uptake): 1.47 ± 0.11 %ID/g
tissue uptake at 24 h (in vivo; 0.037 MBq, Liver uptake): 1.18 ± 0.28 %ID/g
tissue uptake at 0.5 h (in vivo; 0.037 MBq, Lung uptake): 5.42 ± 0.7 %ID/g
tissue uptake at 2 h (in vivo; 0.037 MBq, Lung uptake): 1.15 ± 0.22 %ID/g
tissue uptake at 4 h (in vivo; 0.037 MBq, Lung uptake): 0.4 ± 0.16 %ID/g
tissue uptake at 24 h (in vivo; 0.037 MBq, Lung uptake): 0.16 ± 0.03 %ID/g
tissue uptake at 0.5 h (in vivo; 0.037 MBq, Muscle uptake): 0.8 ± 0.46 %ID/g
tissue uptake at 2 h (in vivo; 0.037 MBq, Muscle uptake): 0.2 ± 0.15 %ID/g
tissue uptake at 4 h (in vivo; 0.037 MBq, Muscle uptake): 0.15 ± 0.1 %ID/g
tissue uptake at 24 h (in vivo; 0.037 MBq, Muscle uptake): 0.03 ± 0.02 %ID/g
tissue uptake at 0.5 h (in vivo; 0.037 MBq, Pancreas uptake): 1.06 ± 0.33 %ID/g
tissue uptake at 2 h (in vivo; 0.037 MBq, Pancreas uptake): 0.2 ± 0.11 %ID/g
tissue uptake at 4 h (in vivo; 0.037 MBq, Pancreas uptake): 0.1 ± 0.05 %ID/g
tissue uptake at 24 h (in vivo; 0.037 MBq, Pancreas uptake): 0.1 ± 0.05 %ID/g
tissue uptake at 0.5 h (in vivo; 0.037 MBq, Skin uptake): 5.43 ± 0.41 %ID/g
tissue uptake at 2 h (in vivo; 0.037 MBq, Skin uptake): 1.1 ± 0.39 %ID/g
tissue uptake at 4 h (in vivo; 0.037 MBq, Skin uptake): 0.53 ± 0.09 %ID/g
tissue uptake at 24 h (in vivo; 0.037 MBq, Skin uptake): 0.24 ± 0.1 %ID/g
tissue uptake at 0.5 h (in vivo; 0.037 MBq, Spleen uptake): 2.12 ± 0.57 %ID/g
tissue uptake at 2 h (in vivo; 0.037 MBq, Spleen uptake): 0.61 ± 0.31 %ID/g
tissue uptake at 4 h (in vivo; 0.037 MBq, Spleen uptake): 0.25 ± 0.12 %ID/g
tissue uptake at 24 h (in vivo; 0.037 MBq, Spleen uptake): 0.41 ± 0.14 %ID/g
tissue uptake at 0.5 h (in vivo; 0.037 MBq, Stomach uptake): 3.13 ± 0.62 %ID/g
tissue uptake at 2 h (in vivo; 0.037 MBq, Stomach uptake): 1.63 ± 0.43 %ID/g
tissue uptake at 4 h (in vivo; 0.037 MBq, Stomach uptake): 1.41 ± 0.74 %ID/g
tissue uptake at 24 h (in vivo; 0.037 MBq, Stomach uptake): 0.28 ± 0.09 %ID/g
tissue uptake at 0.5 h (in vivo; 0.037 MBq, Tumor uptake): 8.46 ± 3.7 %ID/g
tissue uptake at 2 h (in vivo; 0.037 MBq, Tumor uptake): 18 ± 4.96 %ID/g
tissue uptake at 4 h (in vivo; 0.037 MBq, Tumor uptake): 14.1 ± 2.9 %ID/g
tissue uptake at 24 h (in vivo; 0.037 MBq, Tumor uptake): 10.2 ± 2.66 %ID/g
tissue to tissue ratio at 0.5 h (in vivo; [3]): 1.56
tissue to tissue ratio at 2 h (in vivo; [3]): 15.6
tissue to tissue ratio at 4 h (in vivo; [3]): 35.2
tissue to tissue ratio at 24 h (in vivo; [3]): 63.5
tissue uptake dose at 2 h (in vivo; Bladder): 77.8 ± 2.34 %ID
tissue uptake dose at 2 h (in vivo; Intestines): 2.5 ± 0.16 %ID
tissue to tissue ratio at 2 h (in vivo; Uptake ratio Tumor/Blood): 2.41
tissue to tissue ratio at 2 h (in vivo; Uptake ratio Tumor/Kidneys): 0.09
tissue to tissue ratio at 2 h (in vivo; Uptake ratio Tumor/Liver): 1.12
tissue to tissue ratio at 2 h (in vivo; Uptake ratio Tumor/Lung): 1.73
tissue to tissue ratio at 2 h (in vivo; Uptake ratio Tumor/Muscle): 10.4
melanoma imaging by SPECT/CT [1]: visualized clearly; also recorded: clearly imaged
